Data reported in the DeepSol protein solubility set.

test: soluble on expression in E. coli; label from the status in PepcDB or PDB records

Soluble on expression in E. coli, soluble:
MKNLTTIKQTNKNVKQERRKKYADLAIQGTNNSSIASKRSVELLYLPKLSSANNFQMDKNNKLLEYFKFFVPKKIKRSPCINRGYWLRLFAIRSRLNSIIEQTPQDKKIVVVNLGCGYDPLPFQLLDTNNIQSQQYHDRVSFIDIDYSDLLKIKIELIKTIPELSKIIGLSEDKDYVDDSNVDFLTTPKYLARPCDLNDSKMFSTLLNECQLYDPNVVKVFVAEVSLAYMKPERSDSIIEATSKMENSHFIILEQLIPKGPFEPFSKQMLAHFKRNDSPLQSVLKYNTIESQVQRFNKLGFAYVNVGDMFQLWESADEATKKELLKVEPFDELEEFHLFCHHYVLCHATNYKEFAFTQGFLFDRSISEINLTVDEDYQLLECECPINRKFGDVDVAGNDVFYMGGSNPYRVNEILQLSIHYDKIDMKNIEVSSSEVPVARMCHTFTTISRNNQLLLIGGRKAPHQGLSDNWIFDMKTREWSMIKSLSHTRFRHSACSLPDGNVLILGGVTEGPAMLLYNVTEEIFKDVTPKDEFFQNSLVSAGLEFDPVSKQGIILGGGFMDQTTVSDKAIIFKYDAENATEPITVIKKLQHPLFQRYGSQIKYITPRKLLIVGGTSPSGLFDRTNSIISLDPLSETLTSIPISRRIWEDHSLMLAGFSLVSTSMGTIHIIGGGATCYGFGSVTNVGLKLIAIAK

Soluble on expression in E. coli, not soluble:
MRDSIMQMCELCGKLTDKLYKVIIEGSEMNVCKECAKFGKSPKTYSRLGKKTIIGKGTITTNKQVKKPIKRRRDIFDTLPMLREDYGDVIREAREKRGLSIEELAKKLKMKASTLQKFERYELEPNEKEIKILEKELKISLTESIGEETSYYGGRDEDGFTLGDFIKIKK
FDIALTGREGKKIGAAFIVGDSEEVLKRSHQIILNPYEGHEEAHRNILDRRNWESIKEFALLDGVFVIDETGIVRAAGRYLDVDGKNIDIEKGLGGRHVSAAAISRDTVAISVTVSESGGVLRVYKDAKETICMESLQPASRYV
MILNKKKLYFETQAFTDKLINEISINMSKRKELINCYDIEAYVKETENIDFFDYPFKKQSKKLIWGSVTKIGDVTMVATAQHLKIEIKNFTKMHEIIHHYFDYTTDMPNNEKSFDTLLIKKGYLPEDYPKEFRANKGAGMLLINKKALKYAFSTYDDLEKMASFFNVNDIVLKIRILDELIYSHNLSYKQANLIYNSYYFQQQTQLKEILLK
DLPIADVQGSLDTRHIAIDRVGIKAIRHPVVVADKGGGSQHTVAQFNMYVNLPHNFKGTHMSRFVEILNSHEREISVESFEEILRSMVSRLESDSGHIEMAFPYFINKSAPVSGVKSLLDYEVTFIGEIKHGNQYSFTMKVIVPVTSLCPCSKKISDYGAHNQRSHVTISVRTNSFIWIEDIIRIAEEQASCELYGLLKRPDEKYVTERAYNNPKFVEDIVRDVAEVLNHDDRIDAYIVESENFESIHNHSAYA
REEYYVWDKEASINFIKPGQSDLFAEFEITDGMLDEIYQMTRNGEKCFPEFITHVKDKQGNVVSEVQRKLYVRKKPQYREEEAVTEVP
MSTPYVSVIGKITGIHKKEYESDGTTKSVYQGYIEDDTARIRISSFGKQLQDSDVVRIDNARVAQFNGYLSLSVGDSSRIESVNVNIPLEHHHHHH
MTVWDRPEPPHRPVPLDRERIVAAAVALADEGGLTAVSVRKVAARLDAGPMRLYGFISTKDELFDLMVDAVYAEILPEERAGDWREALRVLAHRTRQAALRHPWLADLLGGRPALGPNGLAVAEATLAALDGLADVDTVMRAVETVSSYFTGAVRREIADLRAERATGLSKPEWQREHGPHLTRMLATGRYPALAKAVHDGTHVDAEESFATGLDWVLDAVAVRLARPPGS
MGSDKIHHHHHHMNNLYPYGAPDSNLYARKQEEYDQQIAEAILAGIKREATAIELYRRLADEAPSEQHQHDIRQALENKQASLTQFTNAYRILTGQQPQLEVDDVSFYRFHEGLQKAYEIEVEGYEEYERSSALTENPHVQHAFWTALNTEYENTTRLYRSLHEEADHRVTDHGPRPFVVNIEDETKRNRAFRRALWTGDHLQVTLMSIQVGEDIGLEIHPHLDQFLRVEEGRGLVQMGHRQDNLHFQEEVFDDYAILIPAGTWHNVRNTGNRPLKLYSIYAPPQHPHGTVHETKAIAMAAEEHHHL
